Data set [1] has as its target T1, PDGF-BB (human, UniProt P01127 82-190). In words: structure-switching fluorescence.
For data set [2], the target named is T1, PDGF-BB. In words: structure-switching fluorescence. This is another data set of the same source.

T1 sequence (P01127 82-190): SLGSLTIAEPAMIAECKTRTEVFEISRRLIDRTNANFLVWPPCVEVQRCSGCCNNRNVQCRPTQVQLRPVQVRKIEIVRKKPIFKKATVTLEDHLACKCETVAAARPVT

B1: SPDGF (Apt35-FAM/cDNA12-BHQ1/cDNADCV) (mixed)
DNA 1: AAGGCTACGGCACGTAGAGCATCACCATGATCCTGTGTGGTCTATGTCGTCGTTCG
DNA 2: TGCCGTAGCCTT
DNA 3: AAGTATTACCAGAAACGAACGACGACATAGACCACA
As to B1, the binding signal in the data set with PDGF-BB [1] was ~6.9 fold fluorescence increase.

B2: mSPDGF (mApt35-FAM/cDNA12-BHQ1/cDNADCV) (mixed)
DNA 1: AAGGCTACGGCACGATCTCGTAGTGGTCTGACTGCTGTGGTCTATGTCGTCGTTCG
DNA 2: TGCCGTAGCCTT
DNA 3: AAGTATTACCAGAAACGAACGACGACATAGACCACA
As for B2, the binding result with PDGF-BB [2] is given as “no binding”.

(Values after PMC10631208.)
